# According to US11479601B2, “Antibodies specific to Sonic Hedgehog and method of use thereof” (The Regents of the University of California, priority 2016, dated 2022):
# Where “and” joins values, the source holds several entries; their conditions need not be identical. Equal entries are not always repeated.
# What was measured:
# [1] = tested on: A549 cell subcutaneous xenograft tumor; test: A549 subcutaneous xenograft, intra-tumor injection of C-terminal Shh antibody; format: in vivo, mice
# Description: For xenograft formation, female nude mice, 5 to 10 weeks old, were injected subcutaneously (SC) with 10 million A549 cells in the dorsal area in a volume of […]. For SC inoculation of sorted cells, 1,500 cells of A549 Shh+ or Shh− cells were injected in a volume of […]. For intra-veinous injection of sorted cells, 1,000 cells of A549 Shh+ or Shh− cells were injected in the tail vein. For the in vivo treatment assay, after xenograft formation, animals were injected intravenously with cisplatin (10 mg/kg weekly), docetaxel (10 mg/kg twice a week) or vehicle, and intraperitoneally with GDC0449 (20 mg/kg daily) or vehicle. Each group consisted in 4-5 mice. Tumor size was determined twice a week, and tumor volumes were calculated using width (x) and length (y) (x^2y/2, where x<y). Tumors were collected after mice euthanasia, and cell dissociation was performed as for fresh human samples (cf supra). Flow cytometry and FACS were done as described supra. All animals were cared in accord with University of California San Francisco (UCSF) guidelines.
# (§1) The in vivo effect of the C-terminal Shh antibodies were tested using the A549 cell subcutaneous xenograft tumor model in mice, as described in Example 1. After xenograft formation, animals were intra-tumor injected with a C terminal Shh antibody (2G4 or 2D9; each at 158 μg), or a control solution, 3 times a week for about 3 weeks (at 2-3 day intervals). Tumor volume was determined, as described in Example 1, every 2 days. Weight and size of the excised tumor were determined after the antibody treatment. A portion of the excised tumor was sectioned for immunohistochemical analysis of Shh protein expression, and RNA was extracted from another portion of the excised tumor for analysis of Gli1 expression.
# NSCLC A549 cells = test: CellTiter-Glo cell viability assay, A549; format: cell-based, human; conditions: 96 hours, compared with controls
# Description: Logarithmically growing cells were plated in antibiotic-free medium supplemented with 2% fetal bovine serum at a density of 5,000 cells per well in clear-bottom 96-well plates. The next day cells were treated (triplicates) with increasing doses of in-house therapeutic antibodies (reconstituted in PBS) or PBS controls for 96 hours and subsequently assessed for cell viability by measuring ATP content with CellTiter-Glo Luminescent Cell Viability Assay (Promega). Signal intensity was measured on a Glomax™ 96 Microplate Luminometer (Promega) and percent cell survival was calculated based on the reading of PBS control cells set as 100%.
# Shh protein = test: Ex vivo Shh staining of excised A549 xenograft tumors; format: in vivo, mice
# Description: as §1
# Control IgG and Ab 1C11-2G4-treated A549 tumors harvested from mice were sectioned ([…]) and stained with a commercially available Sonic Hedgehog (Shh) antibody (Abcam 53281, 1:100) post acetone fixation, 0.2% Triton-X 100 permeabilization and serum blocking steps. A FITC-conjugated secondary antibody (1:1000) and […] DAPI (Vector Laboratories) mounting medium were used to stain sections prior to imaging at 20× magnification using a Zeiss Axiolmager 2 fluorescence microscope. Captured images were processed via ImageJ software (available at https://imagej.nih.gov/ij/download.html) and representative images are presented.
# To assess the effects of antibody administration on hedgehog epitope occupancy, tumors were sectioned and stained with a commercial antibody specific for sonic hedgehog (Shh). […] Confirmatory results were observed when ground up permeabilized tumor cells were labeled with the commercially available Shh antibody and assessed using flow cytometry; 1C11-2G4-treated tumors (20%-Shh-labeled) contrasted with IgG controls (80%-Shh-labeled) (FIG. 46B).
# [2] = target: T1, cell-surface Sonic Hedgehog on A549 cells (Homo sapiens, UniProt Q15465); test: FACS of non-permeabilized A549 cells labeled with anti-Shh antibodies; format: binding; conditions: A549, without membrane permeabilization
# T1 construct: recognize cell-surface expression of Sonic Hedgehog, A549 cells were labeled with in-house antibodies; endogenous in cells; host or cells: A549
# Description: A549, 293T or 293T (+pCMV Shh) cells were labeled with Sonic Hedgehog (Shh) antibody (Abcam 53281, 1:100) or therapeutic test antibodies (1:100) for 1 hour at RT post serum blocking. Following two PBS washes, a FITC-conjugated secondary antibody (Abcam 97029, 1:100) or an Alexa-Fluor 647 (Invitrogen, 1:1000) was used to label cells. Samples were screened by flow cytometry using an Accuri™ C6 machine (BD Biosciences). For fluorescence activated cell sorting, samples were sorted using an S3e™ Cell Sorter (Bio-Rad) and the Shh+ population was collected. For all experiments, cells processed without primary antibody served as a negative control. Experiments were performed in duplicates or triplicates.
# To corroborate that the two anti-Shh antibodies, 1C11-2G4 and 1C11-2D9, recognize cell-surface expression of Sonic Hedgehog, A549 cells were labeled with in-house antibodies and sorted via Fluorescence Activated Cell Sorting (FACS) without membrane permeabilization. […] BMC Cancer. 15:84 (2015); Singh S, Trevino J, Bora-Singhal N, Coppola D, Haura E, Altiok S, Chellappan S P. EGFR/Src/Akt signaling modulates Sox2 expression and self-renewal of stem-like side-population cells in non-small cell lung cancer. Mol Cancer. 11:73 (2012); Cochrane C R, Szczepny A, Watkins D N, Cain J E. Hedgehog Signaling in the Maintenance of Cancer Stem Cells. Cancers (Basel). […]
molecule,measurement,setting,value
"2G4: purified mouse monoclonal C-terminal Shh antibody from hybridoma sub-clone 2G4 of clone 1C11, IgG1 kappa (antibody, V domains shown) VH: EVKLVESGGGLVKPGGSLKLSCAASGFTFSSYTMSWVRQTPAKRLEWVATISSGGGNTYYPDSVKGRFTISRDNARNTLYLQMSSLRSEDTAMYYCARDYRSLFAYWGQGTLVTVSA VL: QIVLTQSPAIMSASPGEKVTITCSASSSVSYMHWFQQKPGTSPKLWIYSTSNLASGVPARFSGSGSGTSYSLTISRMEAEDAATYYCQQRSSYPFTFGSGTKLEIK","Average % change in tumor volume, relative to day −2",[1]; Day 0,104.50%
same,Average change in tumor volume,"[1]; Day 0, 158 μg intra-tumor 3 times a week",14.6 mm^3
same,"Average % change in tumor volume, relative to day −2",[1]; Day 2,90.20%
same,Average change in tumor volume,[1]; Day 2,−21.7 mm^3
same,"Average % change in tumor volume, relative to day −2",[1]; Day 5,103.10%
same,Average change in tumor volume,[1]; Day 5,15.3 mm^3
same,"Average % change in tumor volume, relative to day −2",[1]; Day 7,105.80%
same,Average change in tumor volume,[1]; Day 7,33.5 mm^3
same,"Average % change in tumor volume, relative to day −2",[1]; Day 12,121.90%
same,Average change in tumor volume,[1]; Day 12,103 mm^3
same,"Average % change in tumor volume, relative to day −2",[1]; Day 14,137.70%
same,Average change in tumor volume,[1]; Day 14,138.2 mm^3
same,"Average % change in tumor volume, relative to day −2",[1]; Day 16,148%
same,Average change in tumor volume,[1]; Day 16,174.04 mm^3
same,"Average % change in tumor volume, relative to day −2",[1]; Day 19,189.60%
same,Average change in tumor volume,[1]; Day 19,277.7 mm^3
same,"Average % change in tumor volume, relative to day −2",[1]; Day 21,202.40%
same,Average change in tumor volume,[1]; Day 21,337.8 mm^3
same,"Average % change in tumor volume, relative to day −2",[1]; Day −2,100%
same,"Weight of tumor after treatment, AVG",[1]; average of 3 animals,0.0644
same,Weight of tumor after treatment,[1]; individual animals,0.048 and 0.0966 and 0.0486
same,A549 tumor cell proliferation / cell viability,NSCLC A549 cells,marginally stronger anti-proliferative capacity
same,cells expressing Shh protein in excised tumor (immunostaining),"Shh protein; intra-tumor antibody 158 μg, compared to control tumor samples",fewer cells expressing Shh protein
same,number of Shh-labeled cells in permeabilized tumor sections (immunofluorescence),"Shh protein; tumors after 8 mg/kg treatment, versus IgG controls",significant reduction in the number of Shh-labeled cells
same,"Shh-labeled cells in ground up permeabilized tumor cells (flow cytometry, commercial Shh antibody)","Shh protein; tumors after 8 mg/kg treatment, IgG controls 80%",20%
same,Shh+ cells recognized from a mixed population (FACS),[2],0.11%
